Test results taken from publication PMC4356968, “Characterization of the MCM homohexamer from the thermoacidophilic euryarchaeon Picrophilus torridus” (Scientific Reports, 2015).
Values belong to the compound of their own block, whether it stands above or below them.

How the values were obtained:
[1] = target: His-PtMCM-Strep (Picrophilus torridus MCM, recombinant) (Picrophilus torridus); experiment: SEC; Superdex 200 10/300 GL calibrated with protein standards, 50 mM potassium phosphate pH 7.4, 150 mM NaCl; molecular weight from retention volume; PtMCM 400 ug, profile unchanged over 1.5 to 5 uM protein
PtMCM = target: T1, PtMCM (Picrophilus oshimae, UniProt A0A8G2FX57, K337A); experiment: ATP hydrolysis, gamma-32P ATP tracer, TLC; assay type: biochemical; details: pH 6.0, 55 °C, 10 or 100 uM ATP, no DNA, 800 nM protein, 60 min; Walker A mutant
T1 construct: gene SAMN02745355_1050; full length, N-terminal 6xHis and C-terminal Strep-tag kept; E. coli BL21 Codon Plus; tagged monomer 81 kDa (untagged ~76 kDa); homohexamer
T1 sequence (A0A8G2FX57 entry or part of it K337A): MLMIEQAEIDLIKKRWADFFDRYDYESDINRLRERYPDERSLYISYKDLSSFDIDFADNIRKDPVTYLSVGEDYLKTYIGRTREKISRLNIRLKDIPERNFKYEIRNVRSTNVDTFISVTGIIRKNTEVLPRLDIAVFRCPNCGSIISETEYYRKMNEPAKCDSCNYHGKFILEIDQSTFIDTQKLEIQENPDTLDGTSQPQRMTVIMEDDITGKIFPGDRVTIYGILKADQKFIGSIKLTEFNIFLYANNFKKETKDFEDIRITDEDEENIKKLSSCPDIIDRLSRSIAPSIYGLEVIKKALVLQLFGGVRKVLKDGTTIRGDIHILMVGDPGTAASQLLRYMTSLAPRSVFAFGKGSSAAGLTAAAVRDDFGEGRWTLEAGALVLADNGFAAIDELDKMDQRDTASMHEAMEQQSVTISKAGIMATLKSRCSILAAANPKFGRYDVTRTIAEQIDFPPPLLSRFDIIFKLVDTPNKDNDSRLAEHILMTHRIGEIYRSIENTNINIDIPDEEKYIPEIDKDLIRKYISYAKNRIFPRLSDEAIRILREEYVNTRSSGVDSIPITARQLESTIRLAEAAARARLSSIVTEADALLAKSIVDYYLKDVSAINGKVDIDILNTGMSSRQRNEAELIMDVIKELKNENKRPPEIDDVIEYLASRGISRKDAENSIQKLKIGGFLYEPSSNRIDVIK

[2] = target: His-PtMCM-Strep (Picrophilus torridus MCM, recombinant) (Picrophilus torridus)
[3] = target: His-PtMCM-Strep (Picrophilus torridus MCM, recombinant) (Picrophilus torridus); remark: listed apart in the source
[4] = target: His-PtMCM-Strep (Picrophilus torridus MCM, recombinant) (Picrophilus torridus); remark: listed apart in the source
[5] = target: His-PtGINS (Picrophilus torridus GINS, recombinant) (Picrophilus torridus); experiment: SEC; Superdex 200 10/300 GL calibrated with protein standards, 50 mM potassium phosphate pH 7.4, 150 mM NaCl; molecular weight from retention volume; PtMCM 400 ug, profile unchanged over 1.5 to 5 uM protein

- stoichiometry N [1]: 6
Compound: His-PtMCM-Strep (Picrophilus torridus MCM, recombinant) (enzyme)

Compound: Nc1ncnc2c1ncn2[C@@H]1O[C@H](COP(=O)(O)OP(=O)(O)OP(=O)(O)O)[C@@H](O)[C@H]1O [ATP]
- ATP hydrolysis, gamma-32P ATP tracer, TLC (PtMCM): ATPase activity was drastically diminished in case of the mutant PtMCM-K337A

- ATP hydrolysed during the helicase reaction at pH 6, 3-5 mM ATP, 500 nM PtMCM and 3000 nM PtGINS, 60 min; fold stimulation by GINS [2]: 2 fold
- MCM ATP hydrolysis with 100 uM ATP, 500 nM PtMCM and 3000 nM PtGINS, pH 3-7, with or without DNA, 60 min; fold increase with GINS at lower pH (no effect at pH 5-7) [3]: 2 fold
- ATP hydrolysed during the helicase reaction at pH 4, 5 mM ATP, 500 nM PtMCM and 3000 nM PtGINS, 60 min; fold stimulation by GINS [4]: > 50 fold
- stoichiometry N [5]: 4
Compound: His-PtGINS (Picrophilus torridus GINS, recombinant) (natural protein)
